Laboratory results reported in US20240083958A1, “G PROTEIN PEPTIDOMIMETICS” (VRIJE UNIVERSITEIT BRUSSEL, priority 2020, published 2024).
Bridge positions count the residues as written; N and C are the ends. Square brackets hold non-standard residues; d marks the D form. Primed or numbered codes have the meaning given here. Azk = residue with azidated side chain, clicked to Pra; Pra′ = residue with alkynyl side chain, clicked to Azk; 1Nal = N[C@@H](Cc1cccc2ccccc12)C(=O)O; Aad = N[C@@H](CCCC(=O)O)C(=O)O

molecular target: human β2AR (human, UniProt P07550 2-365); assay: cell-based or functional assay

Binder | Shift (averaged)
Ac-FN[Pra′]CRD[Azk]IQRMHLRQYDLL-OH (triazole 3-7) [compound 39] | 52
Ac-KKKFN[Pra′]CRD[Azk]IQRMHLRQY[Aad]LL-OH (triazole 6-10) [compound 53] | 38
Ac-FN[Pra′]CRD[Azk]IQRMHLRQY[Aad]LL-OH (triazole 3-7) [compound 37] | 35
Ac-FN[Azk]CRD[Pra′]IQRMHLRQYELL-OH (triazole 3-7) [compound 35] | 5
Ac-FN[Pra′]CRN[Azk]IQRMHLRQYELL-OH (triazole 3-7) [compound 38] | 7
Ac-KKKFN[Pra′]CRD[Azk]IQRMHLRQWELL-OH (triazole 6-10) [compound 56] | 53
Ac-FN[Pra′]CRD[Azk]IQRMHLRQWELL-OH [compound 29] | 4
Ac-KKKFN[Pra′]CRD[Azk]IQRMHLRQYEIL-OH (triazole 6-10) [compound 49] | 11
Ac-FN[Pra′]CRD[Azk]IQRMHLRQYQLL-OH [compound 27] | 4
Ac-KFN[Pra′]CRD[Azk]IQRMHLRQYEIL-OH (triazole 4-8) [compound 48] | 8
Ac-FN[Pra′]CRD[Azk]IQRMHLRQWELL-OH (triazole 3-7) [compound 30] | 9
Ac-KKKFN[Pra′]CRD[Azk]IQRMHLRQYDLL-OH (triazole 6-10) [compound 55] | 72
Ac-FN[Pra′]CRD[Azk]IQRMHLRQYQLL-OH (triazole 3-7) [compound 28] | 12
Ac-FN[Pra′]CRD[Azk]IQRMHLRQYELL-NH2 (triazole 3-7) [compound 36] | 1
Ac-KFN[Pra′]CRD[Azk]IQRMHLRQYDLL-OH (triazole 4-8) [compound 54] | 91
Ac-KKKFN[Pra′]CRD[Azk]IQRMHLRQYELI-OH (triazole 6-10) [compound 47] | 64
Ac-FN[Pra′]CRD[Azk]IQRMHLRQYELI-OH (triazole 3-7) [compound 34] | 29
Ac-FN[Pra′]CRD[Azk]IQRMHLRQ[1Nal]ELL-OH (triazole 3-7) [compound 43] | 54
Ac-KFN[Pra′]CRD[Azk]IQRMHLRQYELI-OH (triazole 4-8) [compound 46] | 51
Ac-KFN[Pra′]CRD[Azk]IQRMHLRQY[Aad]LL-OH (triazole 4-8) [compound 52] | 53
Ac-FN[Pra′]CRD[Azk]IQRMHLRQYEIL-OH (triazole 3-7) [compound 32] | 2
